Measurements: the nanobody polyreactivity screen of Harvey et al. (2022)

experiment: yeast display, Sf9 membrane polyspecificity reagent, FACS + sequencing; frameworks hold sequencing errors
Method in brief: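 Sorting gates, low and high (top ~1%), were placed on anti-HA fluorescence to track expression and on streptavidin fluorescence to track reagent binding. A clone's polyreactivity label is taken from the gate it came out of. The reagent was 10% biotinylated, detergent-solubilized Sf9 membrane, applied for 1 hour at 4 °C to galactose-induced yeast display cells.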

Sequence	polyreactivity (PSR sort gate)
QVQLVESGGGLVQAGGSLRLSCAASGSTFYSYAMGWYRQAPGKERELVAAITSGGSTNYADSVKGRFTISRDNAKNTVYLQMNSLKPEDTAVYYCARKYWHRSYGYDYWGQGTQVTVSS	low polyreactivity
QVQLVESGGGLVQAGGSLRLSCAASGSTFYSYAMGWYRQAPGTERELVAAITSRGDRTYYADSVKGRFTISRDNAKNTVYLQMNSLKPEDTAVYYCAAEQSWQGYAYYYWGQGTQVTVSS	high polyreactivity
QVQLVESGGGLVQAGGSLRLSCAASGSTFYSYVMGWYRQAPGKERELVAAITYSGGRTYYADSVKGRFTISRDNAKNTVYLQMNSLKPEDTAVYYCAKRVFNYQRYDYWGQGTQVTVSS	high polyreactivity
QVQLVESGGGLVQAGGSLRLSCAASGSTFYTNAMGWYRQAPGKEREFVAAISWSGSSTYADSVKGRFTISRDNAKNTVYLQMNSLKPEDTAVYYCAADWFKLRTDYYWGQGTQVTVSS	low polyreactivity
QVQLVESGGGLVQAGGSLRLSCAASGSTFYTNAMGWYRQAPGKERELVAAISASVGSTYYADSVKGRFTISRDNAKNTVYLQMNSLKPEDTAVYYCAADRGFYYEYDYWGQGTQVTVSS	low polyreactivity
QVQLVESGGGLVQAGGSLRLSCAASGSTFYTNAMGWYRQAPGKERELVAAISASVGSTYYADSVKGRFTISRDNAKNTVYLQMNSLKPEDTAVYYCAAQYTYLLFASLPDYDYWGQGTQVTVSS	low polyreactivity
QVQLVESGGGLVQAGGSLRLSCAASGSTFYTNAMGWYRQAPGKERELVAAISGSGGSTNYADSVKGRFTISRDNAKNTVYLQMISLKPEDTAVYYGAADGSNYSGSVAAFPYRVDYWGQGTQVNVSS	low polyreactivity
QVQLVESGGGLVQAGGSLRLSCAASGSTFYTNAMGWYRQAPGKERELVAAISGSGGSTYYADSVKGRFTISRDNAMNTVYLQMNSLKPEDTAVYYCADRSRYYDTRFDYWGQGTQVTVSS	low polyreactivity
QVQLVESGGGLVQAGGSLRLSCAASGSTFYTNAMGWYRQAPGKERELVAAISNAGSTYYADSVKGRFTISRDNAKNTVYLQMNSLKPEDTAVYYCAADPIGLSSLWFRYSVSDVDYWGQGTQVTVSS	low polyreactivity
QVQLVESGGGLVQAGGSLRLSCAASGSTFYTYAMGWYRQAPGKERELVAAIRGRGGRTYYADSVKGRFTISRDNAKNTVYLQMNSLKPEDTSVYYCNADGYAYYRATTRFDYWGQGTQVTVSS	high polyreactivity
QVQLVESGGGLVQAGGSLRLSCAASGSTFYTYAMGWYRQAPGKERELVAAISADGGRTYYADSVKGRFTISRDNAKNTVYLQMNSLKPEDTAVYYCAAEERRWSSYRYYYWGQGTQVTVSS	high polyreactivity
QVQLVESGGGLVQAGGSLRLSCAASGSTFYTYTMGWYRQAPGKERELVAAITWSGGSTYYADSVKGRFTISRDNAKNTVYLQMNSLKPEDTAVYYCNADQDYQGARPSGMDYWGQGTQVTVSS	low polyreactivity
QVQLVESGGGLVQAGGSLRLSCAASGSTFYVNAMGCYKQAPGKEWELVAAIDGCDTYYADSVKGRFTISRDNAKKTVNLQMNSLKPDDTEVYYCAAESLPEISVGLGYWGQGTQVTVSS	low polyreactivity
QVQLVESGGGLVQAGGSLRLSCAASGSTFYVNAMGWNRQAPGKEREFVAAISWSGGSTYYADSVKGRFTISRDNAKNTVYLQMNSLKPEDTAVYYCAADRVRKDGVLFDYWGQGTQVTVSS	high polyreactivity
QVQLVESGGGLVQAGGSLRLSCAASGSTFYVNAMGWYRQAPGKERELVAAIRSSAGNTTYADSVKGRFTISRDNAKNTVYLQMNSLKPEDTAVYYCAAETFYDYGGYDYWGQGTQVTVSS	low polyreactivity
QVQLVESGGGLVQAGGSLRLSCAASGSTFYVNTMGWYRQAPGKERELVAVISRTGTSTYYADSVKGRFTISRDNAKNTVYFQMNCLKPEDTAVYYCAKRPLPGRPNRSILQYYYWGQVTQVTVSS	high polyreactivity
QVQLVESGGGLVQAGGSLRLSCAASGSTFYVYAMGWYRQAPGKERELGAAIDSGDSTNYADSVKGRVTISRDNAKNTVYLQMNSLKPEDTAVYYCAVGYWDSRYRYDWPNSDYWGQGTQVTVSS	low polyreactivity
